Laboratory results as given in patent US20170369576A1 (UBI US, published 2017).

Experiments:
[1] = biological target: T1, human CD4, membrane-bound on cells (HPB-ALL cells, blood/PBMC CD4+ T cells, assay target cells) (human, UniProt P01730 26-458); assay: cell-based or functional assay
[2] = biological target: T1, human CD4, membrane-bound on cells …; assay: competition FACS on HPB-ALL cells; reference dB4
recombinant soluble CD4 [3] = biological target: T2, recombinant soluble CD4 (UniProt P01730 26-390, limits assumed); assay: competition ELISA on coated sCD4/p2704a mixture; reference dB4
T2 construct: also called sCD4; rsCD4

[4] = biological target: T1, human CD4, membrane-bound on cells …; assay: cell-based or functional assay; remark: listed apart in the source
[5] = biological target: T1, human CD4, membrane-bound on cells …; assay: competition FACS on HPB-ALL cells; inhibition of dB4-Alexa (250 ng/mL)
Method: On V-bottomed microplates, aliquots of 2×10⁵ cells in 0.1 mL per well were added, centrifuged, and liquid discarded. […] The cells were washed once and the liquid discarded after centrifugation. To each well, aliquots of 200 μL of binding buffer were added and transferred to microdilution tubes for flow cytometric analysis. The binding intensity (mean fluorescence intensity, MFI), based on an inlet of 5,000 cells per sample, was read on FACS.

recombinant soluble CD4 [6] = biological target: T2, recombinant soluble CD4; assay: competition ELISA on coated sCD4/p2704a mixture; inhibition of B4-biotin (10 µg/mL)
[7] = biological target: T1, human CD4, membrane-bound on cells …; assay: cell-based or functional assay; remark: listed apart in the source

B1: murine monoclonal antibody B4 (mAb B4) (antibody, V domains shown)
VH: QVQLQQSGPELVKPGASVRMSCKASGYTFTDYVIHWVKQRTGQGLEWIGEIYPGSGSAYSNAKFKDKATLTADKSSNTAYMQLSSLTSEDSAVYFCARRGNGTGFAYWGQGTLVTVSA
VL: DIVLTQSPASLAVSLGQRATISCKAGQSVDYDGDSYMNWYQQKPGQPPKLLIYVASNLESGIPARFSGSGSGTDFTLNIHPVEEEDAATYYCQQSYKDPLTFGAGTKLELK
modifications: N-glycosylated at Asn101 in the Fv
IC50 of entry inhibition, second cluster, panel of over 850 Env pseudotype viruses [1]: ~10 µg/mL
IC50 ratio of B4 to dB4 [2]: 0.69 ratio
IC50 ratio of B4 to dB4 (recombinant soluble CD4 [3]): 0.68 ratio
IC50 of HIV entry inhibition, pseudotype virus 92TH594 (R5/X4), U87-CD4+/CCR5+/CXCR4+ cells [4]: 0.05 µg/mL
IC50 of HIV entry inhibition, pseudotype virus HXB2 (X4), U87-CD4+/CCR5+/CXCR4+ cells [4]: 0.4 µg/mL
IC50 of HIV entry inhibition, pseudotype virus JRCSF (R5), U87-CD4+/CCR5+/CXCR4+ cells [4]: 0.04 µg/mL
IC50 [5]: 0.135 µg/mL
IC50 (recombinant soluble CD4 [6]): 5.54 µg/mL
IC50 entry inhibition, PhenoSense, control virus 92HT594 [7]: 0.021 µg/mL
IC50 entry inhibition, PhenoSense, control virus JRCSF [7]: 0.034 µg/mL
IC50 entry inhibition, PhenoSense, control virus JRFL [7]: 0.074 µg/mL
IC50 entry inhibition, PhenoSense, isolate 92/RW/008 (clade A) [7]: 0.026 µg/mL
IC50 entry inhibition, PhenoSense, isolate 92/RW/024 (clade A) [7]: 0.055 µg/mL
IC50 entry inhibition, PhenoSense, isolate 92/TH/005 (clade EA) [7]: 0.012 µg/mL
IC50 entry inhibition, PhenoSense, isolate 92/TH/006 (clade EA) [7]: 0.022 µg/mL
IC50 entry inhibition, PhenoSense, isolate 92/TH/007 (clade EA) [7]: 0.013 µg/mL
IC50 entry inhibition, PhenoSense, isolate 92/TH/009 (clade EA) [7]: 0.021 µg/mL
IC50 entry inhibition, PhenoSense, isolate 92/TH/019 (clade EA) [7]: 0.022 µg/mL
IC50 entry inhibition, PhenoSense, isolate 92/TH/020 (clade EA) [7]: 0.015 µg/mL
IC50 entry inhibition, PhenoSense, isolate 92/TH/021 (clade EA) [7]: 0.017 µg/mL
IC50 entry inhibition, PhenoSense, isolate 92/TH/022 (clade EA) [7]: 0.012 µg/mL
IC50 entry inhibition, PhenoSense, isolate 92/TH/024 (clade EA) [7]: 0.01 µg/mL
IC50 entry inhibition, PhenoSense, isolate 92/UG/001 (clade D) [7]: 0.018 µg/mL
IC50 entry inhibition, PhenoSense, isolate 92/UG/005 (clade D) [7]: 0.019 µg/mL
IC50 entry inhibition, PhenoSense, isolate 92/UG/021 (clade D) [7]: 0.017 µg/mL
IC50 entry inhibition, PhenoSense, isolate 92/UG/024 (clade D) [7]: 0.04 µg/mL
IC50 entry inhibition, PhenoSense, isolate 92/UG/035 (clade D) [7]: 0.011 µg/mL
IC50 entry inhibition, PhenoSense, isolate 92/UG/038 (clade D) [7]: 0.014 µg/mL
IC50 entry inhibition, PhenoSense, isolate 92/UG/046 (clade D) [7]: 0.015 µg/mL
IC50 entry inhibition, PhenoSense, isolate 93/BR/019 (clade BF) [7]: 0.013 µg/mL
IC50 entry inhibition, PhenoSense, isolate 93/BR/020 (clade F) [7]: 0.024 µg/mL
IC50 entry inhibition, PhenoSense, isolate 93/IN/101 (clade C) [7]: 0.016 µg/mL
IC50 entry inhibition, PhenoSense, isolate 93/RW/029 (clade A) [7]: 0.019 µg/mL
IC50 entry inhibition, PhenoSense, isolate 93/TH/057 (clade E) [7]: 0.023 µg/mL
IC50 entry inhibition, PhenoSense, isolate 93/TH/305 (clade E) [7]: 0.021 µg/mL
IC50 entry inhibition, PhenoSense, isolate 93/UG/053 (clade D) [7]: 0.02 µg/mL
IC50 entry inhibition, PhenoSense, isolate 93/UG/065 (clade D) [7]: 0.015 µg/mL
IC50 entry inhibition, PhenoSense, isolate 93/UG/067 (clade D) [7]: 0.016 µg/mL
IC50 entry inhibition, PhenoSense, isolate 93/UG/070 (clade D) [7]: 0.011 µg/mL
IC50 entry inhibition, PhenoSense, isolate 93/UG/077 (clade A) [7]: 0.012 µg/mL
IC50 entry inhibition, PhenoSense, isolate 93/UG/082 (clade D) [7]: 0.016 µg/mL
IC50 entry inhibition, PhenoSense, isolate 93/UG/086 (clade D) [7]: 0.015 µg/mL
IC50 entry inhibition, PhenoSense, isolate 94/UG/103 (clade A) [7]: 0.021 µg/mL
IC50 entry inhibition, PhenoSense, isolate 94/UG/105 (clade D) [7]: 0.021 µg/mL
IC50 entry inhibition, PhenoSense, isolate 94/UG/114 (clade D) [7]: 0.015 µg/mL
IC50 entry inhibition, PhenoSense, isolate 94/UG/117 (clade D) [7]: 0.017 µg/mL
IC50 entry inhibition, PhenoSense, isolate 94/UG/118 (clade D) [7]: 0.02 µg/mL
IC50 entry inhibition, PhenoSense, isolate 10215-6 (clade C) [7]: 0.018 µg/mL
IC50 entry inhibition, PhenoSense, isolate 10362 (clade C) [7]: 0.02 µg/mL
IC50 entry inhibition, PhenoSense, isolate 11657-3 (clade C) [7]: 0.025 µg/mL
IC50 entry inhibition, PhenoSense, isolate 20635-4 (clade C) [7]: 0.02 µg/mL
IC50 entry inhibition, PhenoSense, isolate 21068 (clade C) [7]: 0.011 µg/mL
IC50 entry inhibition, PhenoSense, isolate CA1 (clade A) [7]: 0.011 µg/mL
IC50 entry inhibition, PhenoSense, isolate CA2 (clade A) [7]: 0.018 µg/mL
IC50 entry inhibition, PhenoSense, isolate CA3 (clade A) [7]: 0.019 µg/mL
IC50 entry inhibition, PhenoSense, isolate CC1 (clade C) [7]: 0.016 µg/mL
IC50 entry inhibition, PhenoSense, isolate CC2 (clade C) [7]: 0.021 µg/mL
IC50 entry inhibition, PhenoSense, isolate CC3 (clade C) [7]: 0.012 µg/mL
IC50 entry inhibition, PhenoSense, isolate CC4 (clade C) [7]: 0.013 µg/mL
IC50 entry inhibition, PhenoSense, isolate CC5 (clade C) [7]: 0.019 µg/mL
IC50 entry inhibition, PhenoSense, isolate CC6 (clade C) [7]: 0.018 µg/mL
IC50 entry inhibition, PhenoSense, isolate CC7 (clade C) [7]: 0.013 µg/mL
IC50 entry inhibition, PhenoSense, isolate CC8 (clade C) [7]: 0.019 µg/mL
IC50 entry inhibition, PhenoSense, isolate CC9 (clade C) [7]: 0.02 µg/mL
IC50 entry inhibition, PhenoSense, isolate CC10 (clade C) [7]: 0.015 µg/mL
IC50 entry inhibition, PhenoSense, isolate CD1 (clade D) [7]: 0.016 µg/mL
IC50 entry inhibition, PhenoSense, isolate CF2 (clade F) [7]: 0.016 µg/mL
IC50 entry inhibition, PhenoSense, isolate CF3 (clade F) [7]: 0.024 µg/mL
IC50 entry inhibition, PhenoSense, isolate CF4 (clade F) [7]: 0.019 µg/mL
IC50 entry inhibition, PhenoSense, isolate CF5 (clade F) [7]: 0.018 µg/mL
IC50 entry inhibition, PhenoSense, isolate CF6 (clade F) [7]: 0.018 µg/mL
IC50 entry inhibition, PhenoSense, isolate CF7 (clade F) [7]: 0.019 µg/mL
IC50 entry inhibition, PhenoSense, isolate CF8 (clade F) [7]: 0.017 µg/mL
IC50 entry inhibition, PhenoSense, isolate CG1 (clade G) [7]: 0.018 µg/mL
IC50 entry inhibition, PhenoSense, isolate CG2 (clade G) [7]: 0.027 µg/mL
IC50 entry inhibition, PhenoSense, isolate CG3 (clade G) [7]: 0.016 µg/mL
IC50 entry inhibition, PhenoSense, isolate CG4 (clade G) [7]: 0.013 µg/mL
IC50 entry inhibition, PhenoSense, isolate CJ1 (clade J) [7]: 0.018 µg/mL
IC50 entry inhibition, PhenoSense, isolate CJ2 (clade J) [7]: 0.019 µg/mL
IC50 entry inhibition, PhenoSense, isolate CMU02 (clade EA) [7]: 0.011 µg/mL
IC50 entry inhibition, PhenoSense, isolate CMU06 (clade E) [7]: 0.026 µg/mL
IC50 entry inhibition, PhenoSense, isolate MW/93/959 (clade C) [7]: 0.019 µg/mL
IC50 entry inhibition, PhenoSense, isolate MW/93/960 (clade C) [7]: 0.01 µg/mL
IC50 entry inhibition, PhenoSense, isolate QZ4589 (clade E?) [7]: 0.036 µg/mL
average IC50 entry inhibition, PhenoSense, all viruses of Table 3 [7]: 0.018 µg/mL
